Legend:
Assay in all cases: IP/MS, LZTR1 wild type-FLAG, U87
RTTN = RTTN (human, UniProt Q86VV8 1-2226, limits assumed)
Procedure, shortened: (§1)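 Read-out: spectral counts from LC-MS/MS (Orbitrap Fusion) after MaxQuant identification. Variable modifications were Met oxidation, protein N-terminal acetylation and N/Q deamidation.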

ARHGEF40 = ARHGEF40 (human, UniProt Q8TER5 1-1519, limits assumed)
Procedure, shortened: as §1

FKBP15 = target: T1, FKBP15 (human, UniProt Q5T1M5 1-1219, limits assumed)
T1 sequence (looked up): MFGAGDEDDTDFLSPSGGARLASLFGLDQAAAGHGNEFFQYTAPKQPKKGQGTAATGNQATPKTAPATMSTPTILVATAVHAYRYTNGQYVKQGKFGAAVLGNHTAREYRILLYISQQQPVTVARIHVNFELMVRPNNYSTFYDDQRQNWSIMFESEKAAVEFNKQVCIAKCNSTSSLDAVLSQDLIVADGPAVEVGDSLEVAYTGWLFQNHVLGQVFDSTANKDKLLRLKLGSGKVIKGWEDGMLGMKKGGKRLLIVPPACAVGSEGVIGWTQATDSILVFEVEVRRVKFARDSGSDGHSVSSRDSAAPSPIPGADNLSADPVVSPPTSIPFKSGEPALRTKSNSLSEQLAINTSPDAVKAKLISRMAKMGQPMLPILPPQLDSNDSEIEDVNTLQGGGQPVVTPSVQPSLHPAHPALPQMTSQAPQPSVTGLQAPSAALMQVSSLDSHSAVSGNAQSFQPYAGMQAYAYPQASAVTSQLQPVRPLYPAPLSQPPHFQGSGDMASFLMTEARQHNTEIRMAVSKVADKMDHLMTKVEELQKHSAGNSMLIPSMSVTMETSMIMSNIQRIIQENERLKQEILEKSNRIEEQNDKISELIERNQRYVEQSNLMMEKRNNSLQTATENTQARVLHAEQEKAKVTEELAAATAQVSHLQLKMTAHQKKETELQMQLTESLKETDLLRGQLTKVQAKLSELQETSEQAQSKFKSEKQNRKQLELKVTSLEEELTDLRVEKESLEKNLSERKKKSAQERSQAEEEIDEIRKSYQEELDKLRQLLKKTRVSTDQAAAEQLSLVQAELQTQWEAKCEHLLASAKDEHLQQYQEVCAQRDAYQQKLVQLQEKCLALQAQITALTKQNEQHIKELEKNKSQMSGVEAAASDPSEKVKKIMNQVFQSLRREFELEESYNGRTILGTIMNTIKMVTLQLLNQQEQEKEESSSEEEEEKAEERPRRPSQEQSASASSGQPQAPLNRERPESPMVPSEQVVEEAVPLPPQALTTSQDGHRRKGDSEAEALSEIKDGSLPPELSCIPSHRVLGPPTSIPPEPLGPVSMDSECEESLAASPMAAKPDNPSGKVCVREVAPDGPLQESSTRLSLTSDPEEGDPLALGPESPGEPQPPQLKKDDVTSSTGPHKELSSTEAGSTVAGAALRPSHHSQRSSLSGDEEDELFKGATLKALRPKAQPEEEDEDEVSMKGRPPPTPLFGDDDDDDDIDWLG
Procedure, shortened: as §1

MED24 = target: T2, MED24 (human, UniProt O75448 1-989, limits assumed)
T2 sequence (looked up): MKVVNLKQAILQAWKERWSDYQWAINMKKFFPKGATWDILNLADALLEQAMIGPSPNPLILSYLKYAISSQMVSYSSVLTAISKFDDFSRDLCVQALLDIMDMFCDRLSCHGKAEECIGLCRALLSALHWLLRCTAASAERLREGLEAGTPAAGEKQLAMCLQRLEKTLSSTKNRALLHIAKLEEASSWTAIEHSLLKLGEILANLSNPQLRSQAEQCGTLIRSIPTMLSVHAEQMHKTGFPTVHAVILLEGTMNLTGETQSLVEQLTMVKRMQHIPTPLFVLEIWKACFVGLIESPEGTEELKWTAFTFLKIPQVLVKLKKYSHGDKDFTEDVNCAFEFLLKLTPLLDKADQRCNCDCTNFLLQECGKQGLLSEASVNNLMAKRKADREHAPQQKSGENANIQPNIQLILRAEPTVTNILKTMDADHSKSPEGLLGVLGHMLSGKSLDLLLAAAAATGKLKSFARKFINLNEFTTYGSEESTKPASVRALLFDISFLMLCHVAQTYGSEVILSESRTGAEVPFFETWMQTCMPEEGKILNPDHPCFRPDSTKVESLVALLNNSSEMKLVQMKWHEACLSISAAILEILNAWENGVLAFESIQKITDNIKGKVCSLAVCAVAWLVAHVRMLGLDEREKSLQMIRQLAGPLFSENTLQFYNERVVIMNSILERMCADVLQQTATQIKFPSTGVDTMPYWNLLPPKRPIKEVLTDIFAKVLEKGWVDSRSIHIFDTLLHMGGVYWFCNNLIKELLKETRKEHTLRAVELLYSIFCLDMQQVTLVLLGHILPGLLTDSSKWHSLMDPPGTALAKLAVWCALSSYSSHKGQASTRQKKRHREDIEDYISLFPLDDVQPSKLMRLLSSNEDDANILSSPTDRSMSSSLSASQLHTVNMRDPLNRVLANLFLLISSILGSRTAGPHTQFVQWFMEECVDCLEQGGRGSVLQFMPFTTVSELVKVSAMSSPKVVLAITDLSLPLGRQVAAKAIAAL
Procedure, shortened: as §1

Measured: binding result

Chain of RTTN (Q86VV8 whole entry, the tested form may be a part): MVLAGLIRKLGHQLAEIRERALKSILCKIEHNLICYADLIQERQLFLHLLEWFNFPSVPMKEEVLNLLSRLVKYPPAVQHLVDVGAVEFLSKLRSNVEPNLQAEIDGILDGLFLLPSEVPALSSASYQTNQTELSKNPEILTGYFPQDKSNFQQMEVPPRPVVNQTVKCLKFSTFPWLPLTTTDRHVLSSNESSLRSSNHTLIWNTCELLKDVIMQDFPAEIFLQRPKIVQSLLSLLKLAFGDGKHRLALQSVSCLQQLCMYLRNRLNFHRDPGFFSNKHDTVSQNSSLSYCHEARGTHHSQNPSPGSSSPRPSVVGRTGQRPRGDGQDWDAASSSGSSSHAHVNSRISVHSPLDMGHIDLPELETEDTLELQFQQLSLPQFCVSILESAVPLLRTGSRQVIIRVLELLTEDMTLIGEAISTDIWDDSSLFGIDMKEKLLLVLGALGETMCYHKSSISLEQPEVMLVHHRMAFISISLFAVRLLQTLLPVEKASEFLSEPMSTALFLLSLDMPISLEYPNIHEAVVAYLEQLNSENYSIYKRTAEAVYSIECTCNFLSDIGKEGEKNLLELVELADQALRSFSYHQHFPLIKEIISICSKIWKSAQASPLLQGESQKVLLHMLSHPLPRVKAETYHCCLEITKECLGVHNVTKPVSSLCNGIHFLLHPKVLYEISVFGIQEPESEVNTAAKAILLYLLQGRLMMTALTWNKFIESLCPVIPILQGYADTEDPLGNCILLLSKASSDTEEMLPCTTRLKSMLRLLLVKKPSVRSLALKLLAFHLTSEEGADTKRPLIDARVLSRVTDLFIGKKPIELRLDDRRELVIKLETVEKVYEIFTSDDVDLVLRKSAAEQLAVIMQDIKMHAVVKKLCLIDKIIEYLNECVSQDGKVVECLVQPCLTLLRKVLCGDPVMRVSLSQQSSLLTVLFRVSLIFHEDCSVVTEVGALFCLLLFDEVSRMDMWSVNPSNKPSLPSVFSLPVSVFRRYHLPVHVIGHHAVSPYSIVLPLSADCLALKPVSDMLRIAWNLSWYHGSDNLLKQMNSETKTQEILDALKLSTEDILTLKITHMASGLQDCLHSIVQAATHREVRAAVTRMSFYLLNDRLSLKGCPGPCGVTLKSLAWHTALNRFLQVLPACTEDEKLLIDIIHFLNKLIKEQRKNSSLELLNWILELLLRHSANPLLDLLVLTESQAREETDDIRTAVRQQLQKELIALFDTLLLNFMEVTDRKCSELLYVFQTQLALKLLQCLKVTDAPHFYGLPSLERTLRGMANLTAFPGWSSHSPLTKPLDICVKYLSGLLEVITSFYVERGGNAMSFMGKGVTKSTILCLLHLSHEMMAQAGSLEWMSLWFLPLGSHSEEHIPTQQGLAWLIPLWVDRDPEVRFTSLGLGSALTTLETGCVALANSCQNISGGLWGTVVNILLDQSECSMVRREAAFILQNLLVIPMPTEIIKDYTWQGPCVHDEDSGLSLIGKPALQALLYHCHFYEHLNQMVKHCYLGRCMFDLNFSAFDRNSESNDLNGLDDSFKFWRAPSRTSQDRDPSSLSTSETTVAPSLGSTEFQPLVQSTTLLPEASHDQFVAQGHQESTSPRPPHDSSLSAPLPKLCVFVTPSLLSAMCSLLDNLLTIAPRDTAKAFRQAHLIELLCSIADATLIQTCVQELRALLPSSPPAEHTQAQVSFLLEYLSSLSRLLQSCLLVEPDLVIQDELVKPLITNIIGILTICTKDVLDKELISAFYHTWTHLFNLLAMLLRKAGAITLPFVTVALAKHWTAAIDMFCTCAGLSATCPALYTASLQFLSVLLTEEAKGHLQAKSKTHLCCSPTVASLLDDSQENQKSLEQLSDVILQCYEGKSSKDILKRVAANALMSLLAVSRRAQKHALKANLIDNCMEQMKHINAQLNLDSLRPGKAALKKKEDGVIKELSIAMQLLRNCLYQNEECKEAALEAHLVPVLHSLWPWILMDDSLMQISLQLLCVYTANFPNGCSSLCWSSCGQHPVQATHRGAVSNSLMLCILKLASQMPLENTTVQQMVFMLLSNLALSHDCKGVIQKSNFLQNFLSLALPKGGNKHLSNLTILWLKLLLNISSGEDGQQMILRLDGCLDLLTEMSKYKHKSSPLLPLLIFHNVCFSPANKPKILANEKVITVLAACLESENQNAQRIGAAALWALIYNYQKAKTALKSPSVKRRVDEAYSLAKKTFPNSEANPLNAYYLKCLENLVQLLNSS
Chain of ARHGEF40 (Q8TER5 whole entry): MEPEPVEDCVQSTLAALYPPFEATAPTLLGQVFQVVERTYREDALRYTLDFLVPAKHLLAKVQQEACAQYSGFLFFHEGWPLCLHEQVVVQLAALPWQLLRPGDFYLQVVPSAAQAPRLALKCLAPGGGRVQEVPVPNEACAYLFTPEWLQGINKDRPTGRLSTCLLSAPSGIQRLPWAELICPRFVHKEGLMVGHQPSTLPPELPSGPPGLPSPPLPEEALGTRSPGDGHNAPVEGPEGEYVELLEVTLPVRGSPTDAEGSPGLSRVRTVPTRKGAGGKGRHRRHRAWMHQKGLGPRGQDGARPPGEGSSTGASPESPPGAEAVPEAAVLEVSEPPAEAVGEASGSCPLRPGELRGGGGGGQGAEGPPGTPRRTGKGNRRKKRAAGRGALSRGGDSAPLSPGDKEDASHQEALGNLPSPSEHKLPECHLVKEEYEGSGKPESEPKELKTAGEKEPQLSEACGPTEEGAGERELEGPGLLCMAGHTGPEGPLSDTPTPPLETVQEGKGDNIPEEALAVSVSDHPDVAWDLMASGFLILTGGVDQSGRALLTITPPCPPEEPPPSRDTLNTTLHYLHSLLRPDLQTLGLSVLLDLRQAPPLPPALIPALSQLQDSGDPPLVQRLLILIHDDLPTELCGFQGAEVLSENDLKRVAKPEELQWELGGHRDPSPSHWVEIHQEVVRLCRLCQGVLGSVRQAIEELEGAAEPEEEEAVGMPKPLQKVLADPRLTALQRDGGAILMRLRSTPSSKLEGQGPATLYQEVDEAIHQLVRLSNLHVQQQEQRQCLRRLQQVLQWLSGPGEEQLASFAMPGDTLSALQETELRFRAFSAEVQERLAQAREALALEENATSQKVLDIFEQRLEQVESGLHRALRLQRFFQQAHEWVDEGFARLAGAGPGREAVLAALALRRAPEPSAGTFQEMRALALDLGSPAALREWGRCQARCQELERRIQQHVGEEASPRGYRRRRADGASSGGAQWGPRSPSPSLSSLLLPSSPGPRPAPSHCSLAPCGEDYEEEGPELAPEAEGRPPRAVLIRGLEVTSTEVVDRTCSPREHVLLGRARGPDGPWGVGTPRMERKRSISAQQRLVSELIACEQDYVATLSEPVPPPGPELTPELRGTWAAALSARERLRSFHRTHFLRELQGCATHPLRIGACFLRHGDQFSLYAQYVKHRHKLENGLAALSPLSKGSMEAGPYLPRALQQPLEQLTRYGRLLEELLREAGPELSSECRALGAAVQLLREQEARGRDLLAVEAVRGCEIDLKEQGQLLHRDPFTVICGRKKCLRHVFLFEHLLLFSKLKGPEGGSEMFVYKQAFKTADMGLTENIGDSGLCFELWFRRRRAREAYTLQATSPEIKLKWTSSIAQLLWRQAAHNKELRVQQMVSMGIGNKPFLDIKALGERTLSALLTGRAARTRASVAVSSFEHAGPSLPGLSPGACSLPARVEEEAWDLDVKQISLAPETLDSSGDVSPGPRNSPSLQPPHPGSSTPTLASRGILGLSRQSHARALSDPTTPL

B1: LZTR1-FLAG (other, human, UniProt Q8N653 1-840, looked up)
chain: MAGPGSTGGQIGAAALAGGARSKVAPSVDFDHSCSDSVEYLTLNFGPFETVHRWRRLPPCDEFVGARRSKHTVVAYKDAIYVFGGDNGKTMLNDLLRFDVKDCSWCRAFTTGTPPAPRYHHSAVVYGSSMFVFGGYTGDIYSNSNLKNKNDLFEYKFATGQWTEWKIEGRLPVARSAHGATVYSDKLWIFAGYDGNARLNDMWTIGLQDRELTCWEEVAQSGEIPPSCCNFPVAVCRDKMFVFSGQSGAKITNNLFQFEFKDKTWTRIPTEHLLRGSPPPPQRRYGHTMVAFDRHLYVFGGAADNTLPNELHCYDVDFQTWEVVQPSSDSEVGGAEVPERACASEEVPTLTYEERVGFKKSRDVFGLDFGTTSAKQPTQPASELPSGRLFHAAAVISDAMYIFGGTVDNNIRSGEMYRFQFSCYPKCTLHEDYGRLWESRQFCDVEFVLGEKEECVQGHVAIVTARSRWLRRKITQARERLAQKLEQEAAPVPREAPGVAAGGARPPLLHVAIREAEARPFEVLMQFLYTDKIKYPRKGHVEDVLLIMDVYKLALSFQLCRLEQLCRQYIEASVDLQNVLVVCESAARLQLSQLKEHCLNFVVKESHFNQVIMMKEFERLSSPLIVEIVRRKQQPPPRTPLDQPVDIGTSLIQDMKAYLEGAGAEFCDITLLLDGHPRPAHKAILAARSSYFEAMFRSFMPEDGQVNISIGEMVPSRQAFESMLRYIYYGEVNMPPEDSLYLFAAPYYYGFYNNRLQAYCKQNLEMNVTVQNVLQILEAADKTQALDMKRHCLHIIVHQFTKVSKLPTLRSLSQQLLLDIIDSLASHISDKQCAELGADI
notes: Expressed in HEK 293T, HeLa or U87 cells; used as cell lysate; also called LZTR1 wild type-FLAG; LZTR1 WT; not shown: FLAG tag at the C-terminus
binds: all assays above

— US20250262210A1 (TRUSTEES OF COLUMBIA UNIVERSITY IN THE CITY OF NEW YORK, published 2025)
